{
  "source": "patent US20160237160A1",
  "about": "“ANTI-TWEAKR ANTIBODIES AND USES THEREOF” (BAYER PHARMA AKTIENGESELLSCHAFT, priority 2013, published 2016)",
  "molecules": {"B1": {"name": "TWEAK: endogenous TWEAKR ligand; E. coli derived recombinant soluble human TWEAK, Arg93-His249 (R&D #1090-TW-025/CF) (protein, UniProt O43508 93-249, looked up, fragment)", "chain": "RSAPKGRKTRARRAIAAHYEVHPRPGQDGAQAGVDGTVSGWEEARINSSSPLRYNRQIGEFIVTRAGLYYLYCQVHFDEGKAVYLKLDLLVDGVLALRCLEEFSATAASSLGPQLRLCQVSGLLALRPGSSLRIRTLPWAHLKAAPFLTYFGLFQVH"}},
  "key": {"NCI-H322 cells": {"tested_on": "NCI-H322 cells", "assay": "Caspase 3/7 activation", "assay_type": "cell-based, human", "conditions": "100 μg/ml antibody or *100 ng/ml TWEAK, 48 h, IFN gamma", "description": "(§1) To determine the level of apoptosis induction, Caspase-3/7 activation was measured after treatment of cancer cells with TWEAK or agonistic anti-TWEAKR antibodies. Therefore HT-29 cells were plated at a density of 4000 cells/75 μl/well in 96 well plates in assay medium (DMEM/Ham's F12, Biochrom #FG4815+10% FCS+100 ng/ml IFN gamma (R&D Systems #285-IF)). 24 h later cells were incubated with antibodies to the TWEAKR (see Table 24), recombinant human TWEAK (R&D, #1090-TW-025/CF, E. coli derived recombinant soluble human TWEAK, Arg93-His249 of accession # Q4ACW9, Entrez Gene ID 8742, with an N-terminal Met and 6-His tag) or corresponding isotype control IgG at various concentrations as indicated. After 24 h incubation with the antibodies, Caspase 3/7 activity was determined by adding 100 μl/well Caspase 3/7 Solution (Promega, #G8093) to the cells, incubation for one hour and reading of luminescence on a VICTOR V (Perkin Elmer).\n(§2) To determine whether the strong efficacy of the antibodies of the invention also holds true in other cell lines than HT-29, the capacity to induce Caspase 3/7 by anti-TWEAKR antibodies as compared to recombinant human TWEAK was evaluated in a panel of cell lines. For this analysis the following conditions were used: WiDr cells were plated at 3000 cells/well and incubated for 48 h in the presence of TWEAK or the described antibodies, A253 cells were plated at 2500 cells/well and incubated for 24 h, NCI-H322 cells were plated at 5000 cells/well and incubated for 48 h and 786-O cells were plated at 2500 cells/well and incubated for 48 h. The cells were plated in the media as described in Table 21, for A253, NCI-H322 and 786-O cells 100 ng/ml IFN gamma (R&D Systems #285-IF) was added. 24 h after plating antibodies at 100 μg/ml or TWEAK at 300 ng/ml (100 ng/ml TWEAK for NCI-H322 cells) were added and the cells were further incubated for the time periods indicated above. At the end of the incubation time Caspase 3/7 activity was determined as described for HT-29 cells. The fold induction of Caspase 3/7 was calculated as compared to untreated cells."}, "WiDr cells": {"tested_on": "WiDr cells", "assay": "Caspase 3/7 activation", "assay_type": "cell-based, human", "conditions": "100 μg/ml antibody or 300 ng/ml TWEAK, 48 h", "description": "as §1, §2"}, "786-O cells [1]": {"tested_on": "786-O cells", "assay": "Caspase 3/7 activation", "assay_type": "cell-based, human", "conditions": "100 μg/ml antibody or 300 ng/ml TWEAK, 48 h, IFN gamma", "description": "as §1, §2"}, "A253 cells [2]": {"tested_on": "A253 cells", "assay": "Caspase 3/7 activation", "assay_type": "cell-based, human", "conditions": "100 μg/ml antibody or 300 ng/ml TWEAK, 24 h, IFN gamma", "description": "as §1, §2"}, "HT-29 cells [3]": {"tested_on": "HT-29 cells", "assay": "Caspase 3/7 activation", "assay_type": "cell-based, human", "conditions": "100 μg/ml antibody or 300 ng/ml TWEAK, 24 h, IFN gamma", "description": "as §1"}, "SW480 cells": {"tested_on": "SW480 cells", "assay": "Inhibition of proliferation (Cell Titer Glo)", "assay_type": "cell-based, human", "conditions": "72h, 100 μg/ml antibody or *100 ng/ml TWEAK", "description": "(§3) Therefore cells were plated in 96well plates in 750 assay medium (growth media from Table 21, plus 100 ng/ml IFN gamma for 786-O cells) at the following cell numbers: WiDr cells 3000 cells/well, 786-O cells 2500 cells/well. 24 h later cells were incubated with anti-TWEAKR antibodies (see Table 26), recombinant human TWEAK or isotype control IgG (not shown) at the indicated concentrations (antibodies from 0.03-300 μg/ml, TWEAK 100 or 300 ng/ml). At the time of antibody addition cell viability was determined in sister plates (time point zero): therefore 750/well CTG solution (Promega Cell Titer Glo solution (catalog # G755B and G756B) was added to the cells, incubated for 10 minutes and luminescence was read on a Victor V (Perkin Elmer). 96 h after incubation with the agents, cell viability was determined in the assay plates by addition of 100 μl/well CTG solution, 10 min incubation and reading of luminescence. Proliferation in control wells was calculated by subtracting time zero values from the luminescence values in the untreated control wells. % of cell proliferation was calculated in the compound treated wells as compared to the untreated control wells.\n(§4) To evaluate, whether this strong anti-proliferative activity can also be observed in a broader cell panel, in addition LOVO, NCI-H1975, SW-480 (all 3000 cells/well), HT-29 (4000 cells/well), A253 and SK-OV3 (both 2500 cells/well) cells were incubated with 100 μg/ml anti-TWEAKR antibodies or TWEAK ligand for the time periods as indicated in Table 27. All cells were seeded in the growth media indicated in Table 21 and for all cells except for WiDr cells 100 ng/ml IFNgamma was added to the assay medium when seeding the cells. The percentage of growth inhibition for treated cells as compared to proliferation in untreated control cells was measured and calculated as described above. As shown in Table 27 the antibodies of the current invention are more efficacious as compared to other known antibodies in inhibiting proliferation of various cancer cell lines at 100 μg/ml. In most experiments the antibodies of the current invention also show equal or stronger efficacy as compared to 100-300 ng/ml TWEAK ligand. Thus, the antibodies described in this invention are unique in their activity to induce apoptosis and proliferation inhibition in a broad panel of cancer cell lines."}, "HT-29 cells [4]": {"tested_on": "HT-29 cells", "assay": "Inhibition of proliferation (Cell Titer Glo)", "assay_type": "cell-based, human", "conditions": "24h, 100 μg/ml antibody or **300 ng/ml TWEAK", "description": "as §3, §4"}, "NCI-H1975 cells": {"tested_on": "NCI-H1975 cells", "assay": "Inhibition of proliferation (Cell Titer Glo)", "assay_type": "cell-based, human", "conditions": "72h, 100 μg/ml antibody or *100 ng/ml TWEAK", "description": "as §3, §4"}, "Lovo cells": {"tested_on": "Lovo cells", "assay": "Inhibition of proliferation (Cell Titer Glo)", "assay_type": "cell-based, human", "conditions": "72h, 100 μg/ml antibody or *100 ng/ml TWEAK", "description": "as §3, §4"}, "786-O cells [5]": {"tested_on": "786-O cells", "assay": "Inhibition of proliferation (Cell Titer Glo)", "assay_type": "cell-based, human", "conditions": "96h, 100 μg/ml antibody or *100 ng/ml TWEAK", "description": "as §3, §4"}, "A253 cells [6]": {"tested_on": "A253 cells", "assay": "Inhibition of proliferation (Cell Titer Glo)", "assay_type": "cell-based, human", "conditions": "72h, 100 μg/ml antibody or **300 ng/ml TWEAK", "description": "as §3, §4"}, "TWEAKR": {"target": "TWEAKR (Homo sapiens, UniProt Q9NP84)", "conditions": "published data; read-out: KD / binding affinity to TWEAKR (published); cited from earlier work"}},
  "note": "Marks after values point to notes of the source that are not given here.",
  "data": [
    {"molecule": "B1", "values": [
      {"measurement": "Fold induction of Caspase 3/7", "setting": "NCI-H322 cells", "value": "1.39 ± 0.01"},
      {"measurement": "Fold induction of Caspase 3/7", "setting": "WiDr cells", "value": "1.22 ± 0.02"},
      {"measurement": "Fold induction of Caspase 3/7", "setting": "786-O cells [1]", "value": "1.45 ± 0.05"},
      {"measurement": "Fold induction of Caspase 3/7", "setting": "A253 cells [2]", "value": "1.53 ± 0.13"},
      {"measurement": "Fold induction of Caspase 3/7", "setting": "HT-29 cells [3]", "value": "2.31 ± 0.29"},
      {"measurement": "% Inhibition of proliferation", "setting": "SW480 cells", "value": 0, "unit": "%*"},
      {"measurement": "% Inhibition of proliferation", "setting": "HT-29 cells [4]", "value": 98, "unit": "%**"},
      {"measurement": "% Inhibition of proliferation", "setting": "NCI-H1975 cells", "value": 56, "unit": "%*"},
      {"measurement": "% Inhibition of proliferation", "setting": "Lovo cells", "value": 53, "unit": "%*"},
      {"measurement": "% Inhibition of proliferation", "setting": "786-O cells [5]", "value": 12, "unit": "%*"},
      {"measurement": "% Inhibition of proliferation", "setting": "A253 cells [6]", "value": ">100", "unit": "%**"},
      {"measurement": "Kd", "setting": "TWEAKR", "value": "0.8 to 2.4", "unit": "nM"}
    ]}
  ]
}
